# Source: US20200123260A1 (Pfizer, published 2020)
# Several values for one entry are separate records, joined by “and”; a condition that tells them apart may be missing. Equal entries are not always repeated.
# T1: human p75NTR (open reading frame from NM_002507) on HEK293 cells (human, UniProt P08138 29-427)
# T1 construct: whole, on cells; also called hu p75NTR
# T1 sequence (looked up): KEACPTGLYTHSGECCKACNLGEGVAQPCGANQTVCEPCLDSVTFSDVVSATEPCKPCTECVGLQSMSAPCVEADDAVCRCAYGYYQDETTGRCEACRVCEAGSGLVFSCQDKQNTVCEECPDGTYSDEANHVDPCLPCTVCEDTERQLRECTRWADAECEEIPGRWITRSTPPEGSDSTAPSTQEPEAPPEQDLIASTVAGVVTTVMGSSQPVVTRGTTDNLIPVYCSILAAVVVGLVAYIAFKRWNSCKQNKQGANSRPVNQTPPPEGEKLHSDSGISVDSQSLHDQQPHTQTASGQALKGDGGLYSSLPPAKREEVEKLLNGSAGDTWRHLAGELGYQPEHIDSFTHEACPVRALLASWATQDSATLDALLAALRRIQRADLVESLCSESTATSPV
# Experiments:
# [1] = target: hTrkA in the SHC1 recruitment assay (U2OS, Discoverx Pathhunter) (human, UniProt P04629 33-796); test: cell-based or functional assay
# Chain of hTrkA in the SHC1 recruitment assay (U2OS, Discoverx Pathhunter) (P04629 33-796): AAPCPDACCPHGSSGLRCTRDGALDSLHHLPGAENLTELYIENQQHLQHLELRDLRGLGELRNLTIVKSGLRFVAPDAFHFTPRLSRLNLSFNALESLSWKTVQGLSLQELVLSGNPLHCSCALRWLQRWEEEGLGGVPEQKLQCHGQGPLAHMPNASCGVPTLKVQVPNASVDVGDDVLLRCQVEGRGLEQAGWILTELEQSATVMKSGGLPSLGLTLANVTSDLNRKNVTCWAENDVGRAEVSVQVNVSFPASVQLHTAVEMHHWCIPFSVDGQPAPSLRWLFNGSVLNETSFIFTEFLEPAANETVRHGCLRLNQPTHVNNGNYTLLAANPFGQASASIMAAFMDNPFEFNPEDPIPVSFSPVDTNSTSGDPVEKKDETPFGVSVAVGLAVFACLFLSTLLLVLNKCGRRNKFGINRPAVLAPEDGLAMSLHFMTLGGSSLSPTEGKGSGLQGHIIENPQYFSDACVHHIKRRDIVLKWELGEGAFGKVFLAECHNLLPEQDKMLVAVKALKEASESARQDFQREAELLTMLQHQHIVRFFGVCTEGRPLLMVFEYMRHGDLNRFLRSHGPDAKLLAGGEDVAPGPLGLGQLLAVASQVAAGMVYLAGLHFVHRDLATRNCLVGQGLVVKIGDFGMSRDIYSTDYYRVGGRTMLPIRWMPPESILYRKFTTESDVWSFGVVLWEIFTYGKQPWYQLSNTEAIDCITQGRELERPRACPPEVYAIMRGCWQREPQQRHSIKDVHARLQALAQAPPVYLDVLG
# [2] = target: hTrkB-a isoform fused to a small peptide epitope, in U2OS cells (Discoverx Pathhunter) (human, UniProt Q16620 32-822); test: cell-based or functional assay
# Chain of hTrkB-a isoform fused to a small peptide epitope, in U2OS cells (Discoverx Pathhunter) (Q16620 32-430): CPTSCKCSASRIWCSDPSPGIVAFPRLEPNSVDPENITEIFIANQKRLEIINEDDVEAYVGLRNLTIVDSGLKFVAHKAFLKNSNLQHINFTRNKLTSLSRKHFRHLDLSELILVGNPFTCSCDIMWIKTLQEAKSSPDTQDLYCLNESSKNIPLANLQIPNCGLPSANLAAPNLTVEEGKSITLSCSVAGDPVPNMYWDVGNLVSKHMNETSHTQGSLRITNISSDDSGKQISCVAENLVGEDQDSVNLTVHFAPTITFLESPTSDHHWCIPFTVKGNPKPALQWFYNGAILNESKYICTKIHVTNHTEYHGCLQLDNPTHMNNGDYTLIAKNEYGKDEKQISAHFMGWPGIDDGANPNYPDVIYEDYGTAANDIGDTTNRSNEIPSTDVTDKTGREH
# [3] = target: hTrkC in the SHC1 recruitment assay (U2OS, Discoverx Pathhunter) (human, UniProt Q16288 32-839); test: cell-based or functional assay
# Chain of hTrkC in the SHC1 recruitment assay (U2OS, Discoverx Pathhunter) (Q16288 32-839): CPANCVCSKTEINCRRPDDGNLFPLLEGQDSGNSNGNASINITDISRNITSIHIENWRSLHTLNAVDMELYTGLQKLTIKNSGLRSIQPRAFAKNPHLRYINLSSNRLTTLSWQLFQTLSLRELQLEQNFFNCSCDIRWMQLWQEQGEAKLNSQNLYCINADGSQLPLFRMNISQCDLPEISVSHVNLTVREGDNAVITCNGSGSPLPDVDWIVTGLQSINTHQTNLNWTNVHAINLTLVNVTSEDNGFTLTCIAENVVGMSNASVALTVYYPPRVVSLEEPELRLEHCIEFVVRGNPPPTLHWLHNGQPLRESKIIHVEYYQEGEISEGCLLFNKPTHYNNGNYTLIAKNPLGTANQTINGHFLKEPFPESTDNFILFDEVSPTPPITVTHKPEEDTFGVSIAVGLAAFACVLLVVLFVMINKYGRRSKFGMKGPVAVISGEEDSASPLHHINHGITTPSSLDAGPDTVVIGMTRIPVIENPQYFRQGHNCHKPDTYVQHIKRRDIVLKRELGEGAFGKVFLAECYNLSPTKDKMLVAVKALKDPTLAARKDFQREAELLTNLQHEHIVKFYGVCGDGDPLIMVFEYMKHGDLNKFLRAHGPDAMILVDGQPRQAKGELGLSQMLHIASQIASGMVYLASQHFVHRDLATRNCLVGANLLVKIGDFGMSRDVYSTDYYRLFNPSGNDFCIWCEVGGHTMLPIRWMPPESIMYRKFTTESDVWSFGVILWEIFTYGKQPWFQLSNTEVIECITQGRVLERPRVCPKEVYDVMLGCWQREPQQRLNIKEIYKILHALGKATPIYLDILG
# [4] = target: T2, recombinant human TrkC-Fc (rhTrkC-ECD, R&D system, 373-TC/TF) (human, UniProt Q16288 32-429); test: direct binding ELISA: plate coated with rhTrkC-ECD (Fc chimera) at 5 ug/ml, biotinylated antibody, streptavidin-HRP
# T2 construct: extracellular domain; Bought protein; not shown: Fc part, not described
# [5] = target: T3, Chimeric TrkB (d4TrkA) (human); test: cell-based ELISA on transfected 293 cells
# T3 construct: TrkB residues 190-282 replaced by TrkA residues 187-281
# [6] = target: T4, human TrkB (open reading frame from nm_006180) on HEK293 cells (human, UniProt Q16620 32-822); test: cell-based or functional assay
# T4 sequence (Q16620 32-822): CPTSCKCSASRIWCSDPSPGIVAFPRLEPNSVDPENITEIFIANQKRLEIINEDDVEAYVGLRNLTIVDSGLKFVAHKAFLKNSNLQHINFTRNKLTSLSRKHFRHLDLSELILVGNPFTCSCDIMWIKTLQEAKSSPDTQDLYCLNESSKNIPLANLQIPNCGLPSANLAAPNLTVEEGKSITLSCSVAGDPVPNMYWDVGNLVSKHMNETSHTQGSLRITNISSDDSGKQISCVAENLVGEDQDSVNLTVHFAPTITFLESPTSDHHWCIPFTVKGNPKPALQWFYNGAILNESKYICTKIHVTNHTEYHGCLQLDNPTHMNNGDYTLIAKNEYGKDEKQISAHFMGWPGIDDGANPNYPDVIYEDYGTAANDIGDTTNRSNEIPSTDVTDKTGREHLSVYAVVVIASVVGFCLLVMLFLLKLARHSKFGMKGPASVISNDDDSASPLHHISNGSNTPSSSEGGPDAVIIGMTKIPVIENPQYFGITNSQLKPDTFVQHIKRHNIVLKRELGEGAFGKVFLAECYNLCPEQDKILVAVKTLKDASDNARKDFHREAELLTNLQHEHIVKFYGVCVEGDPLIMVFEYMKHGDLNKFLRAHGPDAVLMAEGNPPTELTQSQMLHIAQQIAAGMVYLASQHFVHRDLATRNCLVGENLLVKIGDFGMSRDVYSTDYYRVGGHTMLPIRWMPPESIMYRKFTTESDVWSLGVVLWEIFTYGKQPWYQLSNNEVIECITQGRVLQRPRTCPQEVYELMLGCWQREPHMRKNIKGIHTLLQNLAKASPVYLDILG
# [7] = target: T5, rhTrkB-ECD (R&D #397-TR/CF) (human, UniProt Q16620 32-430); test: SPR (Biacore), TrkB ectodomain immobilised on CM5, antibody injected
# T5 construct: extracellular domain; Bought protein; also called human TrkB-extracellular domain protein; human TrkB ectodomain protein
# T5 sequence (Q16620 32-430): as the sequence (Q16620 32-430) above
# [8] = target: T6, Mouse TrkB ectodomain protein (R&D #1494-TB/CF) (mouse, UniProt P15209 32-429); test: as above
# T6 construct: extracellular domain; Bought protein; also called mouse TrkB-extracellular domain protein
# T6 sequence (P15209 32-429): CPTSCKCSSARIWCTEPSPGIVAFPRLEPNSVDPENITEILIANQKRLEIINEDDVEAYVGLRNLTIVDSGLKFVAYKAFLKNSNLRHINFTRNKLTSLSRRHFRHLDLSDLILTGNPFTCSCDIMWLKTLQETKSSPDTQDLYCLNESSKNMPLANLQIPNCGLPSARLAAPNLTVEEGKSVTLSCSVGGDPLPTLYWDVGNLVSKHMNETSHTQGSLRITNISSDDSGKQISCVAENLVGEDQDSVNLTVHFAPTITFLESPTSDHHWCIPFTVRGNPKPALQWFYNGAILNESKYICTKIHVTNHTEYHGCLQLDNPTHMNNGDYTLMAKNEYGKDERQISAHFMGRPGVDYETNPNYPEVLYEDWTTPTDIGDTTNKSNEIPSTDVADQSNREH
# [9] = target: T7, mouse TrkB (nm_001025074) on HEK293 cells (mouse, UniProt P15209 32-821); test: cell-based ELISA on transfected 293 cells
# T7 construct: whole, on cells; also called rmuTrkB-CRE
# T7 sequence (P15209 32-821): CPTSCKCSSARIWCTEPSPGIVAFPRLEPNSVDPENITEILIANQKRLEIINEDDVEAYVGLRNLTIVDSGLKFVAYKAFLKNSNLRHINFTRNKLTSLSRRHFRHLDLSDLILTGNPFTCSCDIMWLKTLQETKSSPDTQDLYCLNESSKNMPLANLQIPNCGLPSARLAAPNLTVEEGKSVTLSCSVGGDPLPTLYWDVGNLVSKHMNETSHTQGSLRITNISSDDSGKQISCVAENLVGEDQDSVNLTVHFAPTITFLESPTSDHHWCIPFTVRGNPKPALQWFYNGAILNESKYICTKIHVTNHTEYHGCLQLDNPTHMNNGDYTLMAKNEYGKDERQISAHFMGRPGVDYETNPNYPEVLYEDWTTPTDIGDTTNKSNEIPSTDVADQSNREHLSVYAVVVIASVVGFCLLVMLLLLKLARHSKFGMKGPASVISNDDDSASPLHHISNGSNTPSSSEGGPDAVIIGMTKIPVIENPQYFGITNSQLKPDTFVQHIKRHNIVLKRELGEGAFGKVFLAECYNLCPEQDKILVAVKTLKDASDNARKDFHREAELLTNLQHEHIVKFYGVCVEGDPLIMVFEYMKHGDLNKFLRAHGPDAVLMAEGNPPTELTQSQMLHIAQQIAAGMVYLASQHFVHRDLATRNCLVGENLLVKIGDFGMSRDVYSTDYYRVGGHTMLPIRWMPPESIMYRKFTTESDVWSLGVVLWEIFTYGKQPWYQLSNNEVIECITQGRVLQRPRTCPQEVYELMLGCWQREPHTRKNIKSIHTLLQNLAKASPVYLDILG
# [10] = target: T8, TrkB, Cat (Felis domesticus) on 293 cells (cat (Felis domesticus)); test: cell-based ELISA on transfected 293 cells
# T8 construct: Whole entry with signal peptide; also called cat TrkB
# T8 sequence (chain, as listed by the source limits assumed): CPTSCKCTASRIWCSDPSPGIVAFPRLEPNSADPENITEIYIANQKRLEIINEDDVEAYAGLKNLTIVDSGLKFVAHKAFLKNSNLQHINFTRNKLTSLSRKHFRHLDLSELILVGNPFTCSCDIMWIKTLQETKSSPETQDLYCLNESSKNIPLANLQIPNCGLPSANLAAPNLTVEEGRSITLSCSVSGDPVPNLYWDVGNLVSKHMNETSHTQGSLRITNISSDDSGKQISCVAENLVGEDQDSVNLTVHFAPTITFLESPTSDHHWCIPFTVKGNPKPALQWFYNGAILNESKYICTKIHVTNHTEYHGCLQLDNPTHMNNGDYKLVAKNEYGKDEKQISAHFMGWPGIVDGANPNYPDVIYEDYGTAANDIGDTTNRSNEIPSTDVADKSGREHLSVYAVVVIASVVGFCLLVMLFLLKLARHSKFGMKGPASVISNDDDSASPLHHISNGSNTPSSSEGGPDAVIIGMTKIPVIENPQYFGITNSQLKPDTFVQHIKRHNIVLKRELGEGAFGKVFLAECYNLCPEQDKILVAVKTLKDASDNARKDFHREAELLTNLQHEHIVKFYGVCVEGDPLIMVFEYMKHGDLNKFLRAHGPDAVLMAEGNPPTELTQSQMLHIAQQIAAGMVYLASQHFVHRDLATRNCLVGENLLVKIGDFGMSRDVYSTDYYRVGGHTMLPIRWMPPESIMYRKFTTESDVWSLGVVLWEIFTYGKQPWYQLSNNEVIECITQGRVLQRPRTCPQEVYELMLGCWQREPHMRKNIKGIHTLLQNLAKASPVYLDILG
# [11] = target: T9, rhTrkB-ECD-His (human, UniProt Q16620 32-430); test: competition ELISA: plate coated with rhTrkB-ECD-His; biotinylated humanized TOA-1 at 25 ng/ml mixed with unlabeled huTOA-1; streptavidin-HRP
# T9 construct: extracellular domain
# T9 sequence (Q16620 32-430): as the sequence (Q16620 32-430) above
# [12] = target: T7, mouse TrkB (nm_001025074) on HEK293 …; test: cell-based ELISA on transiently transfected HEK293 cells
# [13] = target: T8, TrkB, Cat (Felis domesticus) on 293 …; test: as above
# [14] = target: T5, rhTrkB-ECD (R&D #397-TR/CF); test: competition ELISA: plate coated with rhTrkB-ECD; biotinylated chimeric TOA-1 at 25 ng/ml mixed with the unlabeled antibody; streptavidin-HRP
# [15] = target: T4, human TrkB (open reading frame from …); test: cell-based or functional assay; remark: listed apart in the source
# [16] = target: T1, human p75NTR (open reading frame from …); test: FACS on transiently transfected HEK293 cells, FITC-labeled mouse anti-human IgG
# [17] = target: T10, Recombinant human IL13 (R&D Systems) (human, UniProt P35225 35-146, limits assumed); test: SPR stoichiometry, antibody captured on protein A
# T10 sequence (P35225 35-146 limits assumed): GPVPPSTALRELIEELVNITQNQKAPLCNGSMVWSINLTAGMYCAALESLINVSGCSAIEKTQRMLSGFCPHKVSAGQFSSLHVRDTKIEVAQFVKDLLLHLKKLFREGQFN
# [18] = target: T10, Recombinant human IL13 (R&D Systems); test: SPR stoichiometry, Ab captured on protein A, cytokine at saturation, N = 2
# [19] = target: T11, Recombinant human CCL20 (Peprotech) (human, UniProt P78556 27-96); test: as above
# T11 sequence (P78556 27-96 limits assumed): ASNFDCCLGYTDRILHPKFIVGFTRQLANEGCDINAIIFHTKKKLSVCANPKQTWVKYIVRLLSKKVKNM
# [20] = target: T11, Recombinant human CCL20 (Peprotech); test: SPR stoichiometry, Ab captured on protein A, cytokine at saturation, N = 1
binder,measurement,setting,value
"TAM-163 (huTOA-1 v1.0/1.4) (antibody, human IgG1, kappa, V domains shown, IgG1 with effector-function ablating CH2; Also used biotinylated; also called humanized TOA-1; Humanized TOA1) VH: EVQLVESGGGLVQPGGSLRLSCAASGYSFTAYFMNWVRQAPGKGLEWVARINPNNGDTFYTQKFKGRFTISRDNAKNSLYLQMNSLRAEDTAVYYCARRDYFGAMDYWGQGTLVTVSS VL: DIQMTQSPSSLSASVGDRVTITCRASQTISNNLHWYQQKPGKAPKLLIKSASLAISGVPSRFSGSGSGTDFTLTISSLQPEDFATYYCQQSNSWPNTFGGGTKVEIKR","Fold-increase, SHC1 recruitment assay",[1],1.1 fold
same,"EC50, SHC1 recruitment assay",[2],0.67 nM
same,"Fold-increase, SHC1 recruitment assay",[2],5.2 fold
same,"Fold-increase, SHC1 recruitment assay",[3],1 fold
same,binding result,[4],no binding (tested: about 6.7 nM)
same,binding result,[5],binds
same,"Cre-luciferase reporter, maximum fold-increase (FIG. 38)",[6],5 fold
same,Kd,[7],9.4 nM
same,Kd,[8],11.4 nM
same,EC50,[9],0.33 nM
same,EC50,[10],0.52 nM
same,IC50 (read off the curve),[11],~8 nM
same,EC50,[12],0.34 nM
same,EC50,[13],0.39 nM
same,IC50 (read off the curve),[14],~6 nM
same,"EC50, hTrkB Cre-luc reporter assay, lot L40042-192",[15],0.24 nM and 0.39 nM and 0.61 nM
same,"EC50, hTrkB Cre-luc reporter assay, lot L42385-008",[15],0.25 nM and 0.37 nM
same,"EC50, hTrkB Cre-luc reporter assay, lot L42385-024",[15],0.13 nM
same,"EC50, hTrkB Cre-luc reporter assay, lot L42385-152",[15],0.1 nM
same,"Fold-increase, hTrkB Cre-luc reporter assay, lot L42385-024",[15],5.3 fold
same,"Fold-increase, hTrkB Cre-luc reporter assay, lot L42385-152",[15],4.5 fold
same,binding result,[16],no binding
"C5 (anti-CCL20 antibody, clone C5, parental) (antibody, human IgG1, kappa, V domains shown, also called anti-CCL20-clone5; CCL20-Clone 5) VH: QVQLVQSGAEVKKPGSSVKVSCKASGGTFSSYAISWVRQAPGQGLEWMGGIIPIFGTANYAQKFQGRVTITADESTSTAYMELSSLRSEDTAVYYCAGGSITGTTPFDYWGRGTLVTVSS VL: AIQLTQSPSSLTASVGDRVTITCRASQFASNDVGWYQQKPGKAPKLLIYAASSLQSGVPPRFSGSGSGTEFTFTISSLQPEDFATYYCLQDYTYPLTFGQGTKVEIKR",binding result,[17],no binding
same,Binding Ratio,[18],0
same,Binding Ratio,[19],2
same,"Binding Ratio (measured, before normalisation)",[19],2.18
same,Binding Ratio,[20],2
same,"Binding Ratio (measured, before normalisation)",[20],2.15
